Patent publication US20260098102A1 (NATIONAL UNIVERSITY CORPORATION KOBE UNIVERSITY, published 2026)
Numbering of substitutions follows the chain as printed.

T1: cSIRPA_ECD (cynomolgus monkey)
T1 construct: Secreted recombinant protein
T1 chain: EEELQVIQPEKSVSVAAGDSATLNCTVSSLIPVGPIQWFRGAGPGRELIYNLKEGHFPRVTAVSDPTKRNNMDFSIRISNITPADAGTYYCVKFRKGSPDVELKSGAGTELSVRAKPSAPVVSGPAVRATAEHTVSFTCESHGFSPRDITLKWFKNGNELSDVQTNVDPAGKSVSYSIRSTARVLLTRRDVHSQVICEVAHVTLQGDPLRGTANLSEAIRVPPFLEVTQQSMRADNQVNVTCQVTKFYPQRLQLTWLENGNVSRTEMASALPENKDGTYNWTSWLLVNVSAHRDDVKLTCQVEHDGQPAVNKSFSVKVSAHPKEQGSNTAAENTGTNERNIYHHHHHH

T2: monkey SIRPA protein (cynomolgus monkey, UniProt P78324 31-504 (human entry))
T2 construct: Expressed on 293α cells from pcDNA3.2 V5-DEST or pFLAG V5-DEST vectors; also called cynomolgus monkey SIRPA; cSIRPA
T2 chain: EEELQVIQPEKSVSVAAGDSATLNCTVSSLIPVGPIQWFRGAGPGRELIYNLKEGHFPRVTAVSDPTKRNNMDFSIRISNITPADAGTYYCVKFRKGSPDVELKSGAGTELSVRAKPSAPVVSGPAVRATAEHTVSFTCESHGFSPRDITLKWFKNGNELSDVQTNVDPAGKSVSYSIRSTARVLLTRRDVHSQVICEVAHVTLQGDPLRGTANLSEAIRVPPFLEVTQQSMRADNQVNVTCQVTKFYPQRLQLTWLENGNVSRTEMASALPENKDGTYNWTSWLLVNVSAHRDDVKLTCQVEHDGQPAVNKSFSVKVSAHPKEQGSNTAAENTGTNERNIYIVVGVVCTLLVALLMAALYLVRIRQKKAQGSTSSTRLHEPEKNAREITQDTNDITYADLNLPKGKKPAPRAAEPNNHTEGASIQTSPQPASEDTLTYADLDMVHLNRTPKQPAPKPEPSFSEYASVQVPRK

B1: humanized anti-SIRPA antibody hD13_H1L3 (antibody, human IgG4 S228P, kappa, F234A L235A, V domains shown)
VH: QVQLVESGGGVVQPGRSLRLSCAASGFTFSDYGMIWVRQAPGKGLEWVASISSSSSYIYYADSVKGRFTISRDNSKNRLYLQMNSLRAEDTAVYYCARRYYGFNYPFDYWGQGTMVTVSS
VL: DTQLTQSPSSLSASVGQRVTITCGASKSVRTYMHWYQQKPGKQPKLLIYSASNLEAGVPSRFSGSGSGTDFTLTISSLQPEDFATYYCQQSNEPPYTFGQGTKLEIKR
notes: hH1 heavy chain (IgG4proFALA) and hL3 kappa light chain; also called hD13_HIL3; HIL3 antibody
B2: humanized anti-SIRPA antibody hD13_H1L4 (antibody, human IgG4 S228P, kappa, F234A L235A, V domains shown)
VH: B1 VH
VL: DTVLTQSPDSLAVSLGQRATINCGASKSVRTYMHWYQQKPGQQPKLLIYSASNLEAGVPSRFSGSGSGTDFTLTISSLQAEDVAVYYCQQSNEPPYTFGQGTKVEIKR
notes: hH1 heavy chain (IgG4proFALA) and hL4 kappa light chain; also called hD13_HIL4; hD13_HIL4h
B3: humanized anti-SIRPA antibody hD13_H2L3 (antibody, human IgG4 S228P, kappa, F234A L235A, V domains shown)
VH: B1 VH with Q1E, R78T
VL: B1 VL
notes: hH2 heavy chain (IgG4proFALA) and hL3 kappa light chain; also called H2L3 antibody
B4: humanized anti-SIRPA antibody hD13_H2L2 (antibody, human IgG4 S228P, kappa, F234A L235A, V domains shown)
VH: B1 VH with Q1E, R78T
VL: B1 VL with D1A, T2I, Q43A
notes: hH2 heavy chain (IgG4proFALA) and hL2 kappa light chain; also called H2L2 antibody
B5: human chimeric anti-SIRPA antibody cD13 (antibody, human IgG4 S228P, kappa, F234A L235A, V domains shown)
VH: EVQLVESGGGLVQPGRSLKLSCLASGFTFSDYGMIWVRQAPGKGLEWVASISSSSSYIYYADTVKGRFTISRENAKNTLFLHMTSLRSEDTALYYCARRYYGFNYPFDYWGQGVMVTVSS
VL: DTVLTQSPALAVSLGQRVTISCGASKSVRTYMHWYQQKSGQQPKLLIYSASNLEAGVPSRFSGSGSGTDFTLTIDPVEADDIANYYCQQSNEPPYTFGAGTKLELKR
notes: Human IgG4proFALA heavy chain, human kappa light chain; also called cD13 (IgG4pf); human chimeric antibody D13

Target: T1, cSIRPA_ECD
Experiment: SPR Biacore T200, antibody captured on anti-human IgG (Fc), monkey SIRPA_ECD as analyte, 1:1 model
Method: The dissociation constants of hD13_HIL3, hD13_HIL4, hD13_H2L2, and hD13_H2L3 prepared in Example 7 against human SIRPA_V1_IgV and monkey SIRPA_ECD prepared in Example 1 were measured by a capture method of capturing a humanized antibody as a ligand to an Anti-Human IgG (Fc) antibody immobilized using Human Antibody Capture Kit (GE Healthcare Bioscience Corp.) and measuring an antigen as an analyte, using Biacore T200 (GE Healthcare Bioscience Corp.). HBS-EP+ (GE Healthcare Bioscience Corp.) was used as a running buffer, and CM5 (GE Healthcare Bioscience Corp.) was used as a sensor chip. Onto the chip, 1 μg/mL humanized antibody was added at 10 μL/min for 60 seconds, and then a serially diluted solution (0.5 to 8 μg/mL) of human SIRPA protein or a serially diluted solution (1 to 16 μg/mL) of monkey SIRPA protein was added as an antigen at a flow rate of 30 μL/min for 120 seconds, and subsequently the dissociation phase for 600 seconds was monitored. As a regenerant, 3 M magnesium chloride (GE Healthcare Bioscience Corp.) was added at a flow rate of 20 μL/min for 30 seconds. For data analysis, a binding rate constant (ka), a dissociation rate constant (kd), and a dissociation constant (KD; KD=kd/ka) were calculated using a 1:1 binding model.

Row | Kd | Binder
1 | 38.6 nM | B1
2 | 83.9 nM | B2
3 | 54.2 nM | B3
4 | 162 nM | B4

target: T3, human SIRPA_V9 (human, UniProt P78324 31-504); experiment: cell-based ELISA on 293α cells expressing FLAG-tagged SIRPA_V9; Abs 490 normalized to FLAG tag [i]
T3 construct: FLAG-tagged (pFLAG V5-DEST), on 293α cells; also called human SIRPA Variant 9
Method: (§1) The 293a cells, described in Example 1)-6, were prepared at 5× 10⁵ cells/mL in a 10% FBS-containing DMEM medium. pFLAG V5-DEST-SIRPA_V1-V10, pFLAG V5-DEST-monkey SIRPA, pFLAG V5-DEST-mouse SIRPA, or pFLAG V5-DEST was introduced into the cells using Lipofectamine LTX (Invitrogen), and 100 μL each was aliquoted to a 96-well plate (Corning Incorporated) and cultured overnight in a 10% FBS-containing DMEM medium at 37° C. under a 5% CO₂ condition. The obtained introduced cells were used for cell-based ELISA in a state that they adhered. After the culture supernatant was removed, 50 μL per well of hD13_HIL3, hD13_HIL4h, hD13_H2L2, hD13_H2L3, or cD13 prepared in Examples 6 and 7 or a control antibody was added to each of various SIRPA genes-introduced cells at a final concentration of 0 to 10,000 ng/ml, and the mixture was allowed to stand at 4° C. for one hour. Thereafter, binding to human SIRPA was evaluated in the same manner as in Example 5-1.

Row | EC50 (read off the curve) | Binder
5 | ~0.04 µg/mL | B1
6 | ~0.04 µg/mL | B2
7 | ~0.04 µg/mL | B3
8 | ~0.04 µg/mL | B4
9 | ~0.04 µg/mL | B5

Target: T2, monkey SIRPA protein
Experiment: cell-based ELISA on 293α cells expressing FLAG-tagged monkey SIRPA; Abs 490 normalized to FLAG tag [iii]
Method: as §1

Row | EC50 (read off the curve) | Binder
10 | ~0.03 µg/mL | B1
11 | ~0.03 µg/mL | B2
12 | ~0.03 µg/mL | B3
13 | ~0.03 µg/mL | B4
14 | ~0.03 µg/mL | B5

target: T4, human SIRPA_V1 protein (human, UniProt P78324 31-504); experiment: blocking cell-based ELISA: peroxidase-labeled CD47-Fc (1 µg/mL) on 293α cells expressing SIRPA_V1; y axis = CD47-Fc signal relative to no antibody (100)
T4 construct: Expressed on 293α cells from pcDNA3.2 V5-DEST or pFLAG V5-DEST (FLAG-tagged) vectors; also called human SIRPA Variant 1; hSIRPA V1
Method: After the culture supernatant of human SIRPA or monkey SIRPA expression vector-introduced 293α cells prepared in Example 8)-1 was removed, 50 μL per well of hD13_HIL3, hD13_HIL4h, hD13_H2L2, or hD13_H2L3 diluted with 5% FBS-containing PBS to a final concentration of 0 to 10,000 ng/ml was added to each of pcDNA3.2 V5-DEST-SIRPA_V1, pcDNA3.2 V5-DEST-SIRPA_V2, pcDNA3.2 V5-DEST-monkey SIRPA, and pcDNA3.2 V5-DEST-introduced 293α cells, immediately followed by addition of peroxidase-labeled CD47-Fc prepared with 5% FBS-containing PBS at 1 μg/mL, and the mixture was allowed to stand at 4° C. for one hour. Thereafter, the SIRPA-CD47 binding inhibitory activity was evaluated in the same manner as in 1)-6-3.

T4 sequence (P78324 31-504 limits assumed): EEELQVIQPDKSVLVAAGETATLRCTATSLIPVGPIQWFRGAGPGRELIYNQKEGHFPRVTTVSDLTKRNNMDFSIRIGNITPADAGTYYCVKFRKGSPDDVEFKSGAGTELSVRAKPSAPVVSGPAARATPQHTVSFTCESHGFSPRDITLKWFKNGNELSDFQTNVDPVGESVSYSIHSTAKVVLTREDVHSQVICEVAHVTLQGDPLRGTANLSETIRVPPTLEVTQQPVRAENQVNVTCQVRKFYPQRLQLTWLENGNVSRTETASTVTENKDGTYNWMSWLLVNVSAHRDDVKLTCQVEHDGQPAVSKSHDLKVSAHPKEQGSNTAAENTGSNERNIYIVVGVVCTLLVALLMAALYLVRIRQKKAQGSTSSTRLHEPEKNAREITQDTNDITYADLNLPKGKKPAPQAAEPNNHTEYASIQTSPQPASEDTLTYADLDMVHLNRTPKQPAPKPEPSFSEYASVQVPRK

Row | IC50 (read off the curve) | Binder
15 | ~0.5 µg/mL | B1
16 | ~0.5 µg/mL | B2
17 | ~0.6 µg/mL | B3
18 | ~0.6 µg/mL | B4
19 | ~0.7 µg/mL | B5
